Assay results reported in the supplement of paper PMC9233669.
Fewer inactive variants are shown than the library holds.

What was measured:
biotinyl-Phe-oxazolone = assay: self-aminoacylation, catalytic enhancement (BFO) (fold over background); higher = more active; k-Seq, kA / k0A0; sequences stand for … in GGGAAUGGAUCCACAUCUACGAAUUC…UUCACUGCAGACUUGACGAAGCUG
How it was run: (§1)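 Catalytic enhancement equals the median kA over the uncatalyzed rate, the latter read from the low-activity peak of a bimodal Gaussian fit. Values of kA came from fitting each sequence's fraction reacted to a pseudo-first-order model, with 1000 bootstraps. Reacted RNA was captured with streptavidin and quantified by triplicate qPCR and Illumina sequencing after 90 minutes at room temperature with 2–1250 μM biotinyl-aminoacyl-oxazolone and 0.43 μM mutagenized RNA pools bearing a 21-nt variable region.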

biotinyl-Trp-oxazolone = assay: self-aminoacylation, catalytic enhancement (BWO) (fold over background); higher = more active; k-Seq, kA / k0A0; sequences stand for … in GGGAAUGGAUCCACAUCUACGAAUUC…UUCACUGCAGACUUGACGAAGCUG
How it was run: as §1

biotinyl-Leu-oxazolone = assay: self-aminoacylation, catalytic enhancement (BLO) (fold over background); higher = more active; k-Seq, kA / k0A0; sequences stand for … in GGGAAUGGAUCCACAUCUACGAAUUC…UUCACUGCAGACUUGACGAAGCUG
How it was run: as §1

biotinyl-Ile-oxazolone = assay: self-aminoacylation, catalytic enhancement (BIO) (fold over background); higher = more active; k-Seq, kA / k0A0; sequences stand for … in GGGAAUGGAUCCACAUCUACGAAUUC…UUCACUGCAGACUUGACGAAGCUG
How it was run: as §1

biotinyl-Met-oxazolone = assay: self-aminoacylation, catalytic enhancement (BMO) (fold over background); higher = more active; k-Seq, kA / k0A0; sequences stand for … in GGGAAUGGAUCCACAUCUACGAAUUC…UUCACUGCAGACUUGACGAAGCUG
How it was run: as §1

biotinyl-Val-oxazolone = assay: self-aminoacylation, catalytic enhancement (BVO) (fold over background); higher = more active; k-Seq, kA / k0A0; sequences stand for … in GGGAAUGGAUCCACAUCUACGAAUUC…UUCACUGCAGACUUGACGAAGCUG
How it was run: as §1

Sequence	self-aminoacylation (biotinyl-Phe-oxazolone)	self-aminoacylation (biotinyl-Trp-oxazolone)	self-aminoacylation (biotinyl-Leu-oxazolone)	self-aminoacylation (biotinyl-Ile-oxazolone)	self-aminoacylation (biotinyl-Met-oxazolone)	self-aminoacylation (biotinyl-Val-oxazolone)
CUACACUUCAAACAAUCGGUC [Fam1B.1 aminoacylation ribozyme variant]	88.2	39	2.08	1.22	1.34	1.27
CUACACUUCAAGCAAUAGGUC [Fam1B.1 aminoacylation ribozyme variant]	1.06	0.506	0.527	0.542	0.44	0.585
CUACACUUCAAGCAAUCAGUC [Fam1B.1 aminoacylation ribozyme variant]	21	6.32	0.754	0.668	0.718	0.886
CUACACUUCAAGCAAUCGAUC [Fam1B.1 aminoacylation ribozyme variant]	2.02	0.769	0.458	0.527	0.404	0.649
CUACACUUCAAGCUAUCGGUC [Fam1B.1 aminoacylation ribozyme variant]	0.833	0.608	0.692	0.87	0.746	0.876
CUACACUUCAUGCAAUCGGUC [Fam1B.1 aminoacylation ribozyme variant]	0.689	0.496	0.516	0.707	0.623	0.693
CUACAGCAAACAAUCGGUCUG [Fam1A.1 aminoacylation ribozyme variant]	0.421	0.574	0.577	0.48	0.482	0.65
CUACAUCAAACAACCGGUCUG [Fam1A.1 aminoacylation ribozyme variant]	1.22	1.47	1.14	0.885	1.31	1.11
CUACAUCAAACAAUCGGUCUC [Fam1A.1 aminoacylation ribozyme variant]	1.64	0.882	0.532	0.575	0.683	0.779
CUACAUCAAACAAUCGGUGUG [Fam1A.1 aminoacylation ribozyme variant]	0.672	0.626	1.16	0.722	1.03	0.803
CUACCGCAAACAAUCGGUCUG [Fam1A.1 aminoacylation ribozyme variant]	2.36	0.689	0.896	0.857	0.981	0.961
CUACCUCAAAAAAUCGGUCUG [Fam1A.1 aminoacylation ribozyme variant]	1.28	1.3	1.49	1.02	1.41	1.01
CUACCUCAAACAAUCAGUCUG [Fam1A.1 aminoacylation ribozyme variant]	1.74	0.702	0.671	0.649	0.588	0.647
CUACCUCAAACAAUCGGUCUU [Fam1A.1 aminoacylation ribozyme variant]	1.34	1.65	0.784	0.996	0.623	0.865
CUACCUCAAACAAUCGGUGUG [Fam1A.1 aminoacylation ribozyme variant]	0.583	0.845	2.02	1.19	0.952	1.11
CUACCUCAAACAAUUGGUCUG [Fam1A.1 aminoacylation ribozyme variant]	0.81	0.733	0.824	1.08	1.08	1.04
CUACGUCAAACAAUCCGUCUG [Fam1A.1 aminoacylation ribozyme variant]	2.75	1.18	0.974	1.25	1.43	1.24
CUACGUCAAACAAUCGGUCUC [Fam1A.1 aminoacylation ribozyme variant]	1.24	1.32	0.765	0.998	1.09	1.04
CUACGUCAAACUAUCGGUCUG [Fam1A.1 aminoacylation ribozyme variant]	5.88	1.58	1.72	1.58	1.95	1.76
CUACGUCAAGCAAUCGGUCUG [Fam1A.1 aminoacylation ribozyme variant]	1.88	1.17	1.47	1.63	1.39	1.72
CUACUACAAACAAUCGGUCAG [Fam1A.1 aminoacylation ribozyme variant]	0.636	0.537	0.414	0.561	0.547	0.646

Sequence	self-aminoacylation (biotinyl-Phe-oxazolone)	self-aminoacylation (biotinyl-Trp-oxazolone)	self-aminoacylation (biotinyl-Leu-oxazolone)	self-aminoacylation (biotinyl-Ile-oxazolone)	self-aminoacylation (biotinyl-Met-oxazolone)	self-aminoacylation (biotinyl-Val-oxazolone)
CUACUACAAACAAUCUGUCUG [Fam1A.1 aminoacylation ribozyme variant]	0.733	0.45	0.647	0.787	0.624	0.835
CUACUACAAACAUUCGGUCUG [Fam1A.1 aminoacylation ribozyme variant]	1.33	1.18	1.01	1.34	1.23	1.38
CUACUACAAAGAAUCGGUCUG [Fam1A.1 aminoacylation ribozyme variant]	0.547	0.8	0.775	0.781	0.788	0.54
CUACUAGAAACAAUCGGUCUG [Fam1A.1 aminoacylation ribozyme variant]	0.401	0.625	0.619	0.673	0.687	0.639
CUACUCCAAACAAGCGGUCUG [Fam1A.1 aminoacylation ribozyme variant]	2.15	0.584	0.802	1.2	1.13	1.14
CUACUCCAAACAAUCGGUCUU [Fam1A.1 aminoacylation ribozyme variant]	1.74	1.2	0.868	0.864	0.803	0.958
CUACUCCAAACUAUCGGUCUG [Fam1A.1 aminoacylation ribozyme variant]	0.747	0.822	0.872	0.926	0.806	1.07
CUACUCCGAACAAUCGGUCUG [Fam1A.1 aminoacylation ribozyme variant]	0.826	0.806	0.889	0.847	0.668	0.812
CUACUGCAAACAACCGGUCUG [Fam1A.1 aminoacylation ribozyme variant]	2.5	0.804	0.953	1.02	0.762	0.836
CUACUGCAAACAAUCGUUCUG [Fam1A.1 aminoacylation ribozyme variant]	0.732	0.574	0.647	0.702	0.818	0.735
CUACUGCAAACAAUUGGUCUG [Fam1A.1 aminoacylation ribozyme variant]	1.18	0.956	0.823	1.19	0.966	1.07
CUACUGCAAACUAUCGGUCUG [Fam1A.1 aminoacylation ribozyme variant]	1.14	1.18	1.17	1.02	0.824	1.12
CUACUGCAGACAAUCGGUCUG [Fam1A.1 aminoacylation ribozyme variant]	0.577	0.497	1.07	0.897	1.06	1.04
CUACUGUAAACAAUCGGUCUG [Fam1A.1 aminoacylation ribozyme variant]	0.659	0.53	0.863	0.897	0.887	0.741
CUACUUAAAACAAUCGCUCUG [Fam1A.1 aminoacylation ribozyme variant]	0.52	0.462	0.481	0.623	0.706	0.727
CUACUUAAAACAAUCGGUCGG [Fam1A.1 aminoacylation ribozyme variant]	0.727	0.59	0.857	0.878	0.786	0.74
CUACUUAAAACAAUCGUUCUG [Fam1A.1 aminoacylation ribozyme variant]	0.579	0.503	0.432	0.568	0.592	0.57
CUACUUCAAAAAAUCAGUCUG [Fam1A.1 aminoacylation ribozyme variant]	5.75	2.61	0.804	0.841	0.744	0.754
CUACUUCAAAAAAUCGAUCUG [Fam1A.1 aminoacylation ribozyme variant]	1.46	0.604	0.6	0.663	0.601	0.585
CUACUUCAAAAAAUCGGACUG [Fam1A.1 aminoacylation ribozyme variant]	3.47	2.3	0.733	0.922	0.652	0.539
CUACUUCAAAAAAUCGGUGUG [Fam1A.1 aminoacylation ribozyme variant]	1.89	1.53	1.31	0.889	0.946	0.814
